The target of assay [1] is PP2A scaffold subunit (Homo sapiens) (UniProt P30153). The settings on record: cited from earlier work.
Assay [2] concerns the target T1, PP2A core enzyme (Aα 8-589 and Cα 1-309) as crystallized with TIPRL (human, UniProt P30153 8-589; P67775 1-309, selenomethionine-labeled).
T1 construct: PP2A scaffold subunit Aα, human, residues 8-589; also called PP2A AC dimer; source: Aα: E. coli BL21(DE3); Cα: Hi-5 insect cells; assembled on glutathione resin, released by on-column thrombin cleavage, purified by ion exchange
The assay is described as follows: crystal structure; PP2A-TIPRL complex, sitting drop, 18 °C, 0.1 M citric acid pH 5.2, 9% PEG 4000, 0.2 M sodium acetate; 3.8 Å; four copies in the asymmetric unit. The settings on record: both partners purified.

Assay [3] deals with T2, PP2A scaffold subunit Aα (8-589), as in the crystal of the PP2A-TIPRL complex (human, UniProt P30153 8-589, selenomethionine-labeled).
T2 construct: PP2A scaffold subunit Aα, human, residues 8-589; also called PP2A-A; A subunit; source: E. coli BL21(DE3), purified; GST removed by thrombin
T2 sequence (P30153 8-589, one chain of several): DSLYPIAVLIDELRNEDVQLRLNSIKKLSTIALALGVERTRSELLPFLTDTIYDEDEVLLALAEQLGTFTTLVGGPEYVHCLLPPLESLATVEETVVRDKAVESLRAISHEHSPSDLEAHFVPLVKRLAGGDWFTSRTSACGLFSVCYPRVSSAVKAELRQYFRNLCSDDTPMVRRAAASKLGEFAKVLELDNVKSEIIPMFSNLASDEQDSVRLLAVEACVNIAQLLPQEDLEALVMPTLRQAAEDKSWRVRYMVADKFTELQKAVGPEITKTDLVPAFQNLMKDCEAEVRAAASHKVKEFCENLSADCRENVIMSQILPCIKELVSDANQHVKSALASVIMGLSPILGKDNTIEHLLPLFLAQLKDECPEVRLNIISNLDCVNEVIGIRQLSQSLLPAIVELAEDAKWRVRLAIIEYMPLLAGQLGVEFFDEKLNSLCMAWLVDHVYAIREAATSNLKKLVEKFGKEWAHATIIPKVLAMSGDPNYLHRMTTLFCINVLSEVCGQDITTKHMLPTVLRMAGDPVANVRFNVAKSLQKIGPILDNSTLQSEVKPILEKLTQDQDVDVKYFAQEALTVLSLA
The assay is described as above. The settings on record: both partners purified.

In assay [4] the target is T3, PP2A catalytic subunit Cα (1-309) (human, UniProt P67775 1-309).
T3 construct: source: Hi-5 insect cells (baculovirus), purified (Ni-NTA, Source 15Q)
T3 sequence (P67775 whole entry): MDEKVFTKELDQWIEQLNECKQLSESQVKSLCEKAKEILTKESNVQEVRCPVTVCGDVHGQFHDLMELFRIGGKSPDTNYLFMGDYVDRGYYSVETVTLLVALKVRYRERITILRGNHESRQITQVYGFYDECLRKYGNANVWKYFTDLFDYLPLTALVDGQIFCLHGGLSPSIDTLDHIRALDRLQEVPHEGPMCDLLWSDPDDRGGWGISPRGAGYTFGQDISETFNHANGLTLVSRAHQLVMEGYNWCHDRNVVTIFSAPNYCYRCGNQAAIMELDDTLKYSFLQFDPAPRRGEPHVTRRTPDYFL
The description is as above. The settings on record: both partners purified.

Assay [5] deals with GST-tagged methylated PP2A core enzyme (GST-Aα bound to carboxyl-methylated Cα) (human, UniProt P30153 8-589; P67775 1-309, carboxyl-methylated C-terminus (L309, the last residue of PP2Ac)). The assay is described as follows: cell-based or functional assay.
Chain of GST-tagged methylated PP2A core enzyme (GST-Aα bound to carboxyl-methylated Cα) (P30153 8-589, chain 1 of 2): as the sequence (P30153 8-589, one chain of several) above
Chain of GST-tagged methylated PP2A core enzyme (GST-Aα bound to carboxyl-methylated Cα) (P67775 whole entry, chain 2 of 2): as the sequence (P67775 whole entry) above
In assay [6] the target is T3, PP2A catalytic subunit Cα (1-309). The assay is described as follows: not stated; Supplementary Fig. 6; TIPRL with PP2Ac or the scaffold subunit alone. The settings on record: both partners purified.
The target in assay [7] is T4, PP2A scaffold subunit (Aα) alone, as tested against TIPRL in Supplementary Fig. 6b (human, UniProt P30153 8-589).
T4 construct: PP2A scaffold subunit Aα, human; Aα (8-589) is named for biochemical experiments; source: E. coli BL21(DE3), purified (glutathione resin, Source 15Q)
T4 sequence (P30153 8-589): as the sequence (P30153 8-589, one chain of several) above
The assay is described as above. The settings on record: both partners purified.

Assay [8] addresses T5, GST-tagged unmethylated PP2A core enzyme (GST-Aα bound to Cα) (human, UniProt P30153 8-589; P67775 1-309).
T5 construct: PP2A scaffold subunit Aα, human, residues 8-589; The methods also speak of full-length Aα in pGEX-2T; also called GST-PP2A core enzyme; GST-PP2A-AC dimer; source: GST-Aα: E. coli BL21(DE3), purified (glutathione resin, Source 15Q); Cα: Hi-5 insect cells (baculovirus), purified (Ni-NTA, Source 15Q)
In words: BLI + pull-down; BLI: anti-GST sensors loaded with 150 nM GST-PP2A-AC dimer, TIPRL 0-30 μM, 300 s association and 300 s dissociation, 1:1 model; pull-down of titrated TIPRL by GST-tagged core enzyme on GS4B. The settings on record: both partners purified.

T5 sequence (P30153 8-589, chain 1 of 2): as the sequence (P30153 8-589, one chain of several) above
T5 sequence (P67775 whole entry, chain 2 of 2, the tested form may be a part): as the sequence (P67775 whole entry) above
T1 sequence (P30153 8-589, chain 1 of 2): as the sequence (P30153 8-589, one chain of several) above
T1 sequence (P67775 whole entry, chain 2 of 2, the tested form may be a part): as the sequence (P67775 whole entry) above
Chain of PP2A scaffold subunit (Homo sapiens) (P30153 2-589): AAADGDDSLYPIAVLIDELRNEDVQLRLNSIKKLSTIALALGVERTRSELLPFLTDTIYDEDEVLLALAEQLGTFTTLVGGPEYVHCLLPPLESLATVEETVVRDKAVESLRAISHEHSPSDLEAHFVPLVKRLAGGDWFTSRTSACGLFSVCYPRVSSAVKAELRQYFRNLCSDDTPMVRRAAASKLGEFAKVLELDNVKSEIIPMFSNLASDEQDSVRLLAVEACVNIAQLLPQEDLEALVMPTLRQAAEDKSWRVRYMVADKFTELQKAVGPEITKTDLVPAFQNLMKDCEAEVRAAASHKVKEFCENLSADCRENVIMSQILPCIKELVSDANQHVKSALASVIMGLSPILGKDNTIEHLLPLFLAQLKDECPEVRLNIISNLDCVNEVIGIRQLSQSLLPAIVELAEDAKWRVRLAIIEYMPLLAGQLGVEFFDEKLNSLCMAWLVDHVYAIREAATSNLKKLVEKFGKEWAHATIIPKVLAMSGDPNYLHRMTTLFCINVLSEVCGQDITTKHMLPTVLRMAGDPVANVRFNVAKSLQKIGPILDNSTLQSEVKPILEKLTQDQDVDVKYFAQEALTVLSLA

A word on the Kd: it is the concentration at which binding is half-saturated. In the case of PP2Ac (from UniProt P67775), the Kd in assay [1] was 5 nM.

B1: mouse TIPRL (12-259) (domain or fragment, UniProt Q8BH58 12-259, looked up)
chain: DFSFGPWKLTASKTHIMKSADVEKLADELHMPSLPEMMFGDNVLRIQHGSGFGIEFNATDALRCVNNYQGMLKVACAEEWQESRTEGEHSKEVIKPYDWTYTTDYKGTLLGESLKLKVVPTTDHIDTEKLKAREQIKFFEEVLLFEDELHDHGVSSLSVKIRVMPSSFFLLLRFFLRIDGVLIRMNDTRLYHEADKTYMLREYTSRESKIANLMHVPPSLFTEPNEISQYLPIKEAVCEKLVFPERID
notes: TIPRL, mouse, residues 12-259; also called native TIPRL (12-259); source: E. coli BL21 (DE3), purified (Ni-NTA, Source 15Q, Superdex 200)
As for B1, the binding result in assay [2], in assay [3] and in assay [4] was “binds” each time.

B2: TIPRL (TOR signaling pathway regulator), full length, wild type (natural protein, UniProt Q8BH58 1-271, looked up)
chain: MMIHGFQSSHQDFSFGPWKLTASKTHIMKSADVEKLADELHMPSLPEMMFGDNVLRIQHGSGFGIEFNATDALRCVNNYQGMLKVACAEEWQESRTEGEHSKEVIKPYDWTYTTDYKGTLLGESLKLKVVPTTDHIDTEKLKAREQIKFFEEVLLFEDELHDHGVSSLSVKIRVMPSSFFLLLRFFLRIDGVLIRMNDTRLYHEADKTYMLREYTSRESKIANLMHVPPSLFTEPNEISQYLPIKEAVCEKLVFPERIDPNPVDSQSTPSE
notes: TIPRL, full length, for biochemical experiments; Cloned into pQLinkH; His6-tag removed by TEV protease; also called WT TIPRL; source: E. coli BL21 (DE3), purified (Ni-NTA, Source 15Q, Superdex 200)
Take B2: the “fold increase of the IC50 of TIPRL for phosphatase activity upon carboxylmethylation of the PP2A core enzyme” value in assay [5] is about 30 fold. For the same molecule, the Kd in assay [6] is about 600 nM; in assay [7], about 10000 nM; in assay [8], about 310 nM.

Source of the values: paper PMC5741625, “Methylation-regulated decommissioning of multimeric PP2A complexes” (Nature Communications, 2017).
